Data reported in patent US10005846B2, “Anti-transglutaminase 2 antibodies” (MEDICAL RESEARCH COUNCIL TECHNOLOGY, priority 2012, dated 2018).

How the values were obtained:
[1] = target: T1, TG2 activity in HepG2 cell homogenate (Homo sapiens, UniProt P21980); test: 3H putrescine incorporation TG activity assay in HepG2 cell homogenate; assay type: biochemical
T1 construct: endogenous in cells; host or cells: HepG2
T1 sequence (P21980 1-687): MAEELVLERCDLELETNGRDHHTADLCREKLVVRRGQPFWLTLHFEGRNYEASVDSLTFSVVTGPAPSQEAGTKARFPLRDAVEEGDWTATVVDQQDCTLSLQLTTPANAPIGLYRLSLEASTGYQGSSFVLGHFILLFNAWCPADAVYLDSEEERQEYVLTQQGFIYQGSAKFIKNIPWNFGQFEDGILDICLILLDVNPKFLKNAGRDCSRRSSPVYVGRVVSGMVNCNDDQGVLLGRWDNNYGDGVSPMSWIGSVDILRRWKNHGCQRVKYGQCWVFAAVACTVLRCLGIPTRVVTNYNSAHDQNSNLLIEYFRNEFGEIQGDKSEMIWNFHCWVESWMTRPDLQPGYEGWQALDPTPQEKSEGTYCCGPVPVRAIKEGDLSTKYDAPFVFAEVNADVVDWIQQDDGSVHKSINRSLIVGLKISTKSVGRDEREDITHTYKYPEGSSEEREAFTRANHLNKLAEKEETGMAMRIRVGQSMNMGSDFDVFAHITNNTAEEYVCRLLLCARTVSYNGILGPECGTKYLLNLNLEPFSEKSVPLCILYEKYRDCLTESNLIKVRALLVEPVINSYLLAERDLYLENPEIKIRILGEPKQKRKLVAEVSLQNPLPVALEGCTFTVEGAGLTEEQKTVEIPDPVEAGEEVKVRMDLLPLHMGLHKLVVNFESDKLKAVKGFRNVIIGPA
Method: A: Hep2G cells were lysed and 45 ug of protein mixed with 750 ng of IgG from AB1, DH2, DD9, BB7, DC1 and EH6 for 20 minutes. This was subsequently assayed using the ^3H Putrescine incorporation TG activity assay with sampling over 1 hour. The rate of reaction was calculated and expressed as a percentage of the same lysate incubated with a random antibody (MAB002). Data represents the mean percentage inhibition ±SEM from 2 separate experiments done in duplicate. *p<0.05
HepG2 cells were kindly supplied by Richard Ross (University of Sheffield). Cells were routinely grown at 37° C. in a 95% humidified atmosphere of 5% CO2 in DMEM/4.5 g per liter glucose supplemented with 10% foetal calf serum (FCS), 100 IU penicillin and 100 μg/ml streptomycin, 2 mM I-glutamine (all GIBCO). Two million cells were seeded on a 10 cm dishes and grown for 48 hours. Cells were lysed in 250 μl of STE buffer (0.32M sucrose, 5 mM Tris, 1 mM EDTA containing protease inhibitors Phenylmethylsulphonyl fluoride (1 mM), benzamidine (5 mM), and leupeptin (10 μg/ml) and sonicated on ice to produce a cell lysate usable in TG2 activity assay.
The same protocol was used to assess TG inhibition in cell lysates by replacing the 25 μl of recombinant protein with 25 μl of cell lysate.

[2] = target: T2, HepG2 cell lysate proteins (Homo sapiens, UniProt P21980); test: Western blot of HepG2 lysate immunoprobed with AB1; assay type: binding; settings: 25 μg of lysate
T2 construct: endogenous in cells; host or cells: HepG2
T2 sequence (P21980 1-687): T1 sequence (P21980 1-687)
Method: B: HepG2 cells were exposed to increasing glucose concentrations for 96 hours to up regulate TG2 expression. Cells were harvested, lysed and 25 ug of lysate fractionated by SDS-PAGE, western blotted and then immunoprobed with a 1 ng/ml solution of AB1 IgG using a chemiluminesant end point.
Confirmation of TG2 core protein synthesis as well as TG2 and TG2 core reactivity levels following immunisation were all measured by western blotting. Recombinant proteins (10 to 80 ng) were loaded on a 10% (w/v) polyacrylamide denaturing or non-denaturing gel as required and transferred onto PVDF membranes (Transblot SD, Biorad, UK) for one hour at 100 V. Membranes were blocked overnight at 4° C. with 3% (w/v) BSA in TBS/0.1% (v/v) Tween 20. The membranes were then washed and probed with monoclonal mouse anti-transglutaminase antibodies in TBS/Tween containing 1% BSA. For proof of recombinant TG2 core protein and as a positive control for antibody screening the commercial antibody Cub7402 (neomarkers) was used at a 1:1000 dilution. Binding of primary antibody was detected with the anti-mouse gamma-chain-HRP linked secondary antibody (Sigma, Poole, UK). Bands were visualised using ECL chemiluminescent detection system (Amersham, UK).

[3] = target: T3, extracellular TG2 in human HK-2 cells (Homo sapiens, UniProt P21980); test: Extracellular TG activity in HK-2 cells, biotin cadaverine incorporation into fibronectin (Example 1); assay type: cell-based
T3 construct: endogenous in cells; host or cells: HK-2 (kidney proximal tubular epithelium)
T3 sequence (P21980 1-687): T1 sequence (P21980 1-687)
Method: HK2 cells were plated onto fibronectin and incubated for 2 hours in the presence of 0.1M biotin cadaverine with either 4 ng/μl of human anti-TG2 antibody (AB1) (part A), 4 ng/μl of human anti-TG2 antibody (DC1) (part B) or 400 μM of the site-specific pan TG inhibitor 1,3-Dimethyl-2-[(2-oxo-propyl)thio]imidazolium chloride. […] Changes in optical density were measured at 450 nm in a 96 well plate reader. Data represents mean OD at 450 nm corrected to 1 mg of cell protein. n=6 wells per experimental group.
Extracellular TG activity was measured by modified cell ELISA. HK-2 epithelial cells were harvested using 0.1M EDTA or 0.25% trypsin/EDTA and plated at a density of 8×10^4 cells/well in serum free medium onto a 96 well plate that had been coated overnight with 100 μl/well of fibronectin (5 μg/ml in 50 mM Tris-HCl pH 7.4) (Sigma, Poole UK). Cells were allowed to attach for 2.5 h at 37° C. in the presence of the 0.1 mM biotin cadaverine [N-(5 amino pentyl biotinamide) trifluoroacetic acid] (Molecular Probes, Eugene Oreg., USA). Plates were washed twice with 3 mM EDTA/PBS and cells removed with 0.1% (w/v) deoxycholate in 5 mM EDTA/PBS. The supernatant was collected and used for protein determination. […] The reaction was stopped with 50 μl 2.5 M H2SO4 and the absorbance read at 450 nm.

[4] = target: T4, human TG2 (Homo sapiens, UniProt P21980); test: 3H-putrescine incorporation TG activity assay with recombinant human TG2; assay type: biochemical
T4 sequence (P21980 1-687): T1 sequence (P21980 1-687)
Method: To determine an IC50 value for each antibody against human, rat and mouse the ^3H Putrescine assay was used. 100 ng of human TG2 or 25 ng of mouse and rat TG2 was used to generate a reaction where approximately 3000 cpm of Putrescine were incorporated per hour in 10 ul of the reaction mixture. Serial dilutions of each antibody were then applied starting from adding 500 ng (5 ug/ml final concentration) to the reaction mixture and incubated with the TG2 for 20 minutes prior to activating the reaction. IC50 values were calculated by determining the concentration at which the enzymatic rate of reaction was reduced by 50% using an appropriate curve fit in graphpad prism. Values are expressed as the amount of IgG in […] in the reaction that would inhibit 1 ng of TG2.
TG activity is measured by the Ca^2+ dependent incorporation of ^3H-putrescine into N′,N′-dimethylcasein. Recombinant human TG2 (100 ng) was pre-incubated for twenty minutes at room temperature with the test sample (conditioned medium or purified IgG) before starting the reaction. Twenty-five μl of reaction mix (5 μl of 25 mM CaCl2, 5 μl of 40 mM dithiothreitol, 5 μl ^3H-putrescine mix, and 10 μl 25 mg/ml of N,N′ dimethylcasein (replace 25 mM CaCl2 with 100 mM EDTA for a non-enzymatic control) was added to start the reaction and the samples incubated at 37° C. for up to 1 hour. Aliquots of 10 μl were spotted onto a strip of 3 MM Whatman filter paper and plunged immediately into ice-cold 10% trichloroacetic acid (TCA) in order to precipitate the cross-linked proteins typically at time 0, 10, 30 and 60 minutes into the reaction. After three extensive washes in ice-cold 5% TCA followed by 3 rinses with ice-cold 95% ethanol, the air dried filter was counted in 2 ml of scintillation fluid (Ultima Gold Packard, Perkin Elmer). The rate of reaction was calculated. 1 TG unit is equivalent to the incorporation of 1 nmol of putrescine per hour at 37° C.

inhibition of TG2 in human Hep2G cells (in words) [1]: able to inhibit TG2 successfully
inhibition of TG2 activity in HepG2 homogenate ([1]; 0.5 μg of antibody, 45 ug lysate protein): 70%
off target association in HepG2 lysate [2]: no off target association
inhibition of extracellular TG activity ([3]; 4 ng/ul in the culture media): 60%
inhibition of extracellular TG2 in human HK-2 cells (in words) ([3]; applied to the culture media): able to inhibit TG2 successfully
IC50 against human TG2 ([4]; amount of IgG in the reaction that would inhibit 1 ng of TG2, 100 ng human TG2): 11 ng/mL
hybridoma supernatant ability to inhibit TG2 activity ([4]; initial screen of conditioned medium, 100 ng of TG2): able to inhibit TG2 activity
B1: AB1: murine monoclonal anti-TG2 IgG, Group 1 (epitope amino acids 304 to 326); VH and VK in FIGS. 7 and 18 (antibody, V domains shown)
VH: EVQLVESGGGLVKPGGSLKLSCAASGFTLSSSAMSWVRQTPDRRLEWVATISVGGGKTYYPDSVKGRFTISRDNAKNTLYLQMNSLRSEDTAMYYCAKLISLYWGQGTTLTVSS
VL: DIKMTQSPSSMYASLGERVTITCKASQDINSYLTWFQQKPGKSPKTLIYRTNRLFDGVPSRFSGSGSGQDFFLTISSLEYEDMGIYYCLQYDDFPYTFGGGTKLEIK
